# Results as given in US20240301071A1 (Alector, published 2024).
# Assays:
# [1] = molecular target: human SIRPA Q281A (V5-tagged library clone on HEK-293T cells) (human, UniProt P78324 31-504); experiment: flow cytometry of Fab on HEK-293T cells expressing the mutant, normalised to wild-type SIRPA
# Experimental: (§1) Epitope mapping of anti-SIRPA antibodies was performed using an alanine-scanning library created by shotgun mutagenesis of the human SIRPA cDNA sequence. […] Each of the residues representing the SIRPA extracellular domain (amino acids 31-374 of SEQ ID NO:1) was mutated, most to alanine, while alanine codons were mutated to serine.
# (§2) The SIRPA mutant library clones, arrayed in a 384-well microplate, were transfected individually into HEK-293T cells and allowed to express for 22 hours. Antibodies were digested to generate Fabs, after which cells were incubated with Fabs diluted in 10% normal goat serum (NGS) (Sigma-Aldrich, St. Louis, MO). Prior to library screening, primary Fab concentrations were determined using an independent immunofluorescence titration curve against cells expressing wild type SIRPA to ensure that signals were within the linear range of detection. Fabs were detected using 7.5 μg/ml AlexaFluor488-conjugated secondary antibody (Jackson ImmunoResearch Laboratories, Westgrove, PA) in 10% NGS. Cells were washed twice with PBS and resuspended in Cellstripper (Cellgro, Manassas, VA) with 0.1% BSA (Sigma-Aldrich, St. Louis, MO). In some cases, higher stringency conditions were used, including increased pH, increased temperature, and increased dissociation time. Mean cellular fluorescence was detected using the Intellicyt high throughput flow cytometer (HTFC, Intellicyt, Albuquerque, NM). Fab reactivities against each mutant clone were calculated relative to wild-type SIRPA protein reactivity by subtracting the signal from mock-transfected controls, and normalizing to the signal from wild-type SIRPA transfected controls.
# [2] = molecular target: human SIRPA E297A (V5-tagged library clone on HEK-293T cells) (human, UniProt P78324 31-504); experiment: as above
# human SIRPA E297A (V5-tagged library clone on HEK-293T cells), sequence (P78324 31-504 E297A): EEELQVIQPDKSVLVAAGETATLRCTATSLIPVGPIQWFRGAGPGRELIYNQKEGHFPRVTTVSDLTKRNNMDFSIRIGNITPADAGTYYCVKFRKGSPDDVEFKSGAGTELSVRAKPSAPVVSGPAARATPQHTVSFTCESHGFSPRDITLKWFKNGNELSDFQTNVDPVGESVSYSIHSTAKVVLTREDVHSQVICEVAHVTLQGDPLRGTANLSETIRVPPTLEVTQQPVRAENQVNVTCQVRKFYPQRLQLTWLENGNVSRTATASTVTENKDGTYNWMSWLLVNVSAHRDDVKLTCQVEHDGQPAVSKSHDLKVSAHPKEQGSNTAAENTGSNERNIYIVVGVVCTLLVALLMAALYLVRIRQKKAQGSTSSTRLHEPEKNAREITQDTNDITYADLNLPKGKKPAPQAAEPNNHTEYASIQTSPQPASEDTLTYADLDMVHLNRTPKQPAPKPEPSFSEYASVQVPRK
# Experimental: as §1, §2
# [3] = molecular target: human SIRPA Q284A (V5-tagged library clone on HEK-293T cells) (human, UniProt P78324 31-504); experiment: as above
# human SIRPA Q284A (V5-tagged library clone on HEK-293T cells), sequence (P78324 31-504 Q284A): as the sequence (P78324 31-504 E297A) above, with Q254A, A267E counted along it
# Experimental: as §1, §2
# [4] = molecular target: human SIRPA R282A (V5-tagged library clone on HEK-293T cells) (human, UniProt P78324 31-504); experiment: as above
# human SIRPA R282A (V5-tagged library clone on HEK-293T cells), sequence (P78324 31-504 R282A): as the sequence (P78324 31-504 E297A) above, with R252A, A267E counted along it
# Experimental: as §1, §2
# [5] = molecular target: human SIRPA R295A (V5-tagged library clone on HEK-293T cells) (human, UniProt P78324 31-504); experiment: as above
# human SIRPA R295A (V5-tagged library clone on HEK-293T cells), sequence (P78324 31-504 R295A): as the sequence (P78324 31-504 E297A) above, with R265A, A267E counted along it
# Experimental: as §1, §2
# [6] = molecular target: human SIRPA G337A (V5-tagged library clone on HEK-293T cells) (human, UniProt P78324 31-504); experiment: as above
# human SIRPA G337A (V5-tagged library clone on HEK-293T cells), sequence (P78324 31-504 G337A): as the sequence (P78324 31-504 E297A) above, with A267E, G307A counted along it
# Experimental: as §1, §2
# [7] = molecular target: human SIRPA V302A (V5-tagged library clone on HEK-293T cells) (human, UniProt P78324 31-504); experiment: as above
# human SIRPA V302A (V5-tagged library clone on HEK-293T cells), sequence (P78324 31-504 V302A): as the sequence (P78324 31-504 E297A) above, with A267E, V272A counted along it
# Experimental: as §1, §2
# [8] = molecular target: human SIRPA W287A (V5-tagged library clone on HEK-293T cells) (human, UniProt P78324 31-504); experiment: as above
# human SIRPA W287A (V5-tagged library clone on HEK-293T cells), sequence (P78324 31-504 W287A): as the sequence (P78324 31-504 E297A) above, with W257A, A267E counted along it
# Experimental: as §1, §2
# [9] = molecular target: human SIRPA W315A (V5-tagged library clone on HEK-293T cells) (human, UniProt P78324 31-504); experiment: as above
# human SIRPA W315A (V5-tagged library clone on HEK-293T cells), sequence (P78324 31-504 W315A): as the sequence (P78324 31-504 E297A) above, with A267E, W285A counted along it
# Experimental: as §1, §2
# [10] = molecular target: human SIRPA L285A (V5-tagged library clone on HEK-293T cells) (human, UniProt P78324 31-504); experiment: as above
# human SIRPA L285A (V5-tagged library clone on HEK-293T cells), sequence (P78324 31-504 L285A): as the sequence (P78324 31-504 E297A) above, with L255A, A267E counted along it
# Experimental: as §1, §2
# [11] = molecular target: T1, human SIRPA on human macrophages (primary monocyte-derived macrophages; U937 line) (human, UniProt P78324 31-504); experiment: cell-based or functional assay
# T1 sequence (P78324 31-370): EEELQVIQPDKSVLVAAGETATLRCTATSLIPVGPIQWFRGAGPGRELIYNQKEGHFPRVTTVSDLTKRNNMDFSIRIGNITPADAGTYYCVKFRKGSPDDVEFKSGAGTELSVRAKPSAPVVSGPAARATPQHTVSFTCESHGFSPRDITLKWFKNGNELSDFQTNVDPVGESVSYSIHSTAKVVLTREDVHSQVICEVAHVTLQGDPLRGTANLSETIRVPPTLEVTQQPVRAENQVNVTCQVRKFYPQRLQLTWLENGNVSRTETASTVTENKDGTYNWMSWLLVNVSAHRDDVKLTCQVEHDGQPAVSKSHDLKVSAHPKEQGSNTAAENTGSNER
# [12] = molecular target: T2, human SIRPA v1 on BWZ cells (BWZ-huSIRPA) (human, UniProt P78324 31-504); experiment: flow cytometry titration on BWZ cells overexpressing huSIRPA, 4 C
# T2 construct: also called BWZ cells overexpressing human SIRPA; BWZ-huSIRPA v1 cells
# T2 sequence (P78324 31-504): as the sequence (P78324 31-504 E297A) above, with A267E counted along it
# Experimental: Receptor bound antibodies were detected by staining cells with anti-mouse IgG Fc APC or anti-human IgG PE secondary antibody. Serial dilutions of the monoclonal antibodies were added to 10⁵ BWZ cells overexpressing huSIRPA (BWZ-huSIRPA) and allowed to achieve binding equilibrium at 4° C. After addition of fluorescently labeled secondary antibody and brief washing steps, mean fluorescent intensity (MFI) values as a function of titrated antibody concentration was recorded via FACS analysis. Curves were fit using nonlinear regression analysis with Graphpad Prism 6 software.
# [13] = molecular target: T3, histidine-tagged human SIRPA (Sino Biological) (human, UniProt P78324 31-370); experiment: BLI (Octet RED96), antibody captured on anti-human IgG Fc sensor, His-tagged SIRPA in solution, 1:1 model
# T3 construct: bought, soluble; also called histidine-tagged huSIRPA isoform 1; soluble SIRPA antigen; not shown: histidine tag
# T3 sequence (P78324 31-370 limits assumed): as the sequence (P78324 31-370) above
# Experimental: Affinity measurements for the anti-SIRPA antibodies were performed as follows. Bio-layer interferometry (BLI) data were collected on a Pall ForteBio Octet RED96 instrument. Data analysis was performed using ForteBio Data Analysis Software, version 9.0. Standard kinetic buffer (PBS, 0.100 BSA, 0.02% Tween-20, pH 7.2) was used for the assay and for preparing reagents. […] Varying concentrations (0-200 nM) of histidine-tagged human SIRPA (Sino Biological, Beijing, China) were then bound to the captured anti-SIRPA surface (300 s association time, 600 s dissociation time). The resulting BLI signal was obtained as the difference in response from the reference (2.5 μg/mL IgG+0 nM SIRPA) sensor. […] Multi-concentration kinetic analysis was performed using a 1:1 interaction model to extract association and dissociation rate constants (ka and kd, respectively) for each antibody. Binding affinity constants (KD) were calculated from the ratio kd/ka.
# Best-fit traces from the resulting sensorgrams were analyzed to calculate association rate, dissociation rate, and affinity values.
# [14] = molecular target: T1, human SIRPA on human macrophages …; experiment: cell-based or functional assay; remark: listed apart in the source
# [15] = molecular target: T2, human SIRPA v1 on BWZ cells …; experiment: flow cytometry competition on BWZ-huSIRPA v1 cells, competitor: fluorophore-labelled reference m3F9
# From the text: IC50 values provide another comparison of relative affinity.
# human SIRPA Q281A (V5-tagged library clone on HEK-293T cells), sequence (P78324 31-504 Q281A): as the sequence (P78324 31-504 E297A) above, with Q251A, A267E counted along it
Binder,Binding Reactivity (% WT) [1],Binding Reactivity (% WT) [2],Binding Reactivity (% WT) [3],Binding Reactivity (% WT) [4],Binding Reactivity (% WT) [5],Binding Reactivity (% WT) [6],Binding Reactivity (% WT) [7],Binding Reactivity (% WT) [8],Binding Reactivity (% WT) [9],Binding Reactivity (% WT) [10],"IC50 (read off the curve), SIRPA downregulation on primary human macrophages, Dnr. 517 [11]",EC50 [12],Kd [13],koff [13],kon [13],"IC50 (read off the curve), SIRPA downregulation on primary human macrophages, Dnr 409 [14]",IC50 [15]
"9C2 Fab (Fab, V domains shown) VH: EFQLQQSGAELVKPGASVKISCKASGYSLTGYNMNWVKQSRGKSLEWIGNINPHYGSSTYNQNFKDKATLTVDKSSSAAYMQFNSLTSEDSAVYYCAREGYDGVFDYWGQGTTLTVSS VL: QIVLSQSPAILSASPGEKVTMTCRASSSVSYMHWYQQKPGSSPKPWIYVTSNLASGVPTRFSGSGSGTSYSLTISRVEAEDAATYYCQQWSSNPRTFGGGTKLEIK",14.1 % WT,5.3 % WT,6.5 % WT,4.7 % WT,1.8 % WT,36.3 % WT,4.9 % WT,2.4 % WT,19 % WT,17.9 % WT,,,,,,,
"3F9 Fab (Fab, V domains shown) VH: EVKLVESGGGLVKPGGSLKLSCAASGFTFSSYAMSWVRQTPEKRLEWVATISDYGGSYTYYPDSVKGRFTISRDNAKYTLYLQMSSLRSEDTALYYCARPPYDDYYGGFAYWGQGTLVTVSA VL: DIVLTQSPASLAVSLGQRATISCRASKSVSSSGYSYMHWYQQKPGQPPKLLIYLASNLESGVPARFSGSGSGTDFTLNIHPVEEEDAATYYCQHNRELPCTFGGGTKLEIK",151 % WT,117 % WT,3.3 % WT,3.8 % WT,121 % WT,17.9 % WT,92.3 % WT,125 % WT,117 % WT,107 % WT,,,,,,,
"3F9-22 SELF (antibody, human IgG1, kappa) heavy chain: not shown light chain: DIQLTQSPSSLSASVGDRVTITCRASKSVSSGGYSYMHWYQQKPGKAPKLLIYLASNLESGVPSRFSGSGSGTDFTLTISSVQPEDFATYYCQHNRELPVTFGQGTKLEIKRTVAAPSVFIFPPSDEQLKSGTASVVCLLNNFYPREAKVQWKVDNALQSGNSQESVTEQDSKDSTYSLSSTLTLSKADYEKHKVYACEVTHQGLSSPVTKSFNRGEC",,,,,,,,,,,~0.1 nM,,,,,,
"mAb 14.70.1 (antibody, human IgG4, V domains shown, also called h3F9 H1/L1; h3F9 IgG4) VH: EVQLLESGGGLVQPGGSLRLSCAASGFTFSSYAMSWVRQAPGKGLEWVSTISDYGGSYTYYADSVKGRFTISRDNSKNTLYLQMNSLRAEDTAVYYCAKPPYDDYYGGFAYWGQGTLVTVSS VL: DIQMTQSPSSLSASVGDRVTITCRASKSVSSSGYSYMHWYQQKPGKAPKLLIYLASNLESGVPSRFSGSGSGTDFTLTISSLQPEDFATYYCQHNRELPCTFGQGTKLEIK",,,,,,,,,,,,1.06 nM,19 nM,0.002 s⁻¹,110000 M⁻¹ s⁻¹,~0.2 nM,3.3 nM
